Laboratory results from US20100098696A1 (Eli Lilly, published 2010).
Where two headings read alike, the source gives them in different places.

Columns and labels:
[1] = biological target: T1, Human FGFR-3(IIIb) (human, UniProt P22607-2 23-377, limits assumed); test: BiaCore 3000 SPR, room temperature
T1 construct: The construct in the BiaCore experiment is not described; it is probably recombinant ECD-Fc; also called b-splice form of human FGFR-3
T1 sequence (looked up): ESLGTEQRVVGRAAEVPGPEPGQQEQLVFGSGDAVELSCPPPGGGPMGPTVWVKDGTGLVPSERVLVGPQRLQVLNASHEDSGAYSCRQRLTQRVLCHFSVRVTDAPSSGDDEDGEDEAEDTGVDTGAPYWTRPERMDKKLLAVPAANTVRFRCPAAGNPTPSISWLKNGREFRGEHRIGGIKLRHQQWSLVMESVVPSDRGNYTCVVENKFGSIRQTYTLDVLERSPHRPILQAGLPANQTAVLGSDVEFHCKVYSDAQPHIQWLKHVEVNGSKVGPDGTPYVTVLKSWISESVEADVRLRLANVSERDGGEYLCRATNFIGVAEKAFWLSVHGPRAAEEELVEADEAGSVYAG

[2] = biological target: T2, FGFR-3(IIIb) truncate D1 (25-148)-Fc (human, UniProt P22607 25-148); test: Mesoscale binding assay and BIAcore
T2 construct: range 25-148; Homodimeric Fc fusion; not shown: human Fc tag of the pGS-Fc vector
T2 sequence: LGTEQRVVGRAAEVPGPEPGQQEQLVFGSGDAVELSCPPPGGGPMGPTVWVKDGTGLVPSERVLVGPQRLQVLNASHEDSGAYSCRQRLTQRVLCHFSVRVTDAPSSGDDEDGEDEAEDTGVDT

[3] = biological target: T3, FGFR-3(IIIb) truncate D3 (250-372)-Fc (human, UniProt P22607-2 250-372); test: Mesoscale binding assay and BIAcore
T3 construct: range 250-372; Homodimeric Fc fusion; not shown: human Fc tag of the pGS-Fc vector
T3 sequence (looked up): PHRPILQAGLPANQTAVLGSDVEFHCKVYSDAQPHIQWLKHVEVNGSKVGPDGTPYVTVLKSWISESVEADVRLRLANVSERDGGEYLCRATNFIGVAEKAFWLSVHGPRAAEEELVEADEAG

[4] = biological target: T1, Human FGFR-3(IIIb); test: BiaCore 3000 SPR, room temperature; remark: listed apart in the source
[5] = biological target: T4, FGFR-3(IIIb) or (IIIc) ECD (extracellular domain) Fc tagged soluble recombinant protein (human, UniProt P22607 23-375); test: ELISA blocking assay: FGFR-3 ECD-Fc (1 µg/ml) with antibody dilutions on FGF-1 coated plates; lower end of the range
T4 construct: extracellular domain; also called recombinant human FGFR-Fc; not shown: Fc tag
T4 sequence (looked up): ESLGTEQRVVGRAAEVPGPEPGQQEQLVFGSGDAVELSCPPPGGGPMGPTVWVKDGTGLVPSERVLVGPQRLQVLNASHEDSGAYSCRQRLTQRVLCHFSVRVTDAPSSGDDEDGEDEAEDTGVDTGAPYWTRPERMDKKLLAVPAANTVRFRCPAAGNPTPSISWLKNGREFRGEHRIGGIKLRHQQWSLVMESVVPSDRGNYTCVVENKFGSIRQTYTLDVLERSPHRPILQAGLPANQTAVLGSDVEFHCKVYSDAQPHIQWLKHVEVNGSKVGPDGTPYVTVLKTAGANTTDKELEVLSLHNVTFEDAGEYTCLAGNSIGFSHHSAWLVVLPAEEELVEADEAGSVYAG
From the text: (§1) Wash plates 3 times with 0.2% Tween20/PBS. […] Blocking activities lead to decreased signals.

[6] = biological target: T4, FGFR-3(IIIb) or (IIIc) ECD …; test: ELISA blocking assay: FGFR-3 ECD-Fc (1 µg/ml) with antibody dilutions on FGF-1 coated plates; upper end of the range
From the text: as §1

B1: Antibody 1 (antibody, human IgG1, lambda)
heavy: not shown
light: QSVLTQPPSLSVAPGKTATFTCGGNNIGDKSVHWYRQKPGQAPVLVMYLDTERPSGIPERMSGSNFGNTATLTITRVEAEDEADYYCQVWDSGSDHVVFGGGTKLTVLGQPKAAPSVTLFPPSSEELQANKATLVCLISDFYPGAVTVAWKADSSPVKAGVETTTPSKQSNNKYAASSYLSLTPEQWKSHRSYSCQVTHEGSTVEKTVAPAECS
notes: Human IgG1 from a naive human Fab phage library; It was ruthenium-labelled in the Mesoscale assay and Alexa Fluor-labelled in the internalisation assay; also called FGFR-3 antibody antagonist
[1]
  Kd: 1 nM
[2]
  binding result: no binding (tested: 250-0.001 nM dilution series)
[3]
  binding result: no binding (tested: 250-0.001 nM dilution series)
[4]
  Kd: 0.72 nM
[5]
  IC50: ≥ 1 nM
[6]
  IC50: ≤ 10 nM
